Test results from publication PMC8406324, “Structural Basis for a Neutralizing Antibody Response Elicited by a Recombinant Hantaan Virus Gn Immunogen” (mBio, 2021).

Biological target: T1, recombinant HTNV Gn ectodomain (residues 18 to 371) (Hantaan virus (Orthohantavirus …))
T1 construct: also called N-terminal ectodomain of HTNV Gn; soluble HTNV Gn ectodomain
Experiment: crystal structure
Conditions: both partners purified

Binder	binding result
Fab HTN-Gn1 (Fab, V domains shown, also called HTN-Gn1-Fab; HTNV-Gn1-Fab) VH: QSLVESGGDLVKPEGSLTLTCTASGFSFSSTHWICWVRQAPGKGLEWIACIYVGNTYDSYYANWAKGRFTISKTSSTTVTLQMTTLTAADTATYFCARSGSVFGVVSLWGPGTLVTVSS VL: GQVLTQTPASVSEPVEGTVTIKCQASQSINNWLSWYQQRPGQPPKLLIYDASTVASGVSSRFKGSGSGTEFTLTISDLECADAATYACQSYGYGISITDNSAFGGGTEVVVR	binds
Fab nnHTN-Gn2 (Fab, V domains shown, also called Fab nnHTNV-Gn2) VH: QSLEESGGRLVTPGTPLTLTCTVSGFSLSNYNMQWVRQAPGKGLEWIGIVYTGGVAWYARWAKGRFTISRTSTTVDLKITSPTTEDTATYFCARAYTSNSDIVFDPWGPGTLVTVSS VL: GQVLTQTPASVSAAVGGTVTIKCQASQSVSTALAWYQQKPGQRPKLLIYLASTLTSGVPSRFKGSGSGTEFTLTISGVECDDAATYYCQQGYSYSNVDNSFGGGTEVVVK	binds
